What follows are sequences tested on MS2 coat protein (assay: apparent KD of MS2 coat protein; higher = weaker reporter binding). Conditions: Eterna round: R107; input ligand: arginine 13.2 mM.
Outline: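 Apparent KD is reported per design as the median of normalised binding-curve fits across its clusters. The RNA switches were made by on-chip transcription from Illumina sequencing clusters. SNAP-549-labelled MS2 coat protein was then added in twofold steps (0.7 or 1.5 nM to 3 µM; 0.8–1.5 h to 10–20 min per step) in 100 mM Tris-HCl pH 7.5, 80 mM KCl, 4 mM MgCl2, without or with constant ligand.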

In order of rising “apparent KD of MS2 coat protein” value:
1. AGUCUUGAACGAAGGAGCGACGUACAUGAGGAUCACCCAUGUGGAGCGAAAGCUCCGUAACGUCAGGUAGGUCGCGUUCGAGACA [Omei Arginine B SS A v3]  6.89 nM
2. UGGAAAGCACAUGAGGAUCACCCAUGUGAUACCAGCUGAAACUAAGGCCCUUGGCAGCACAUGGUACCAACCCUUUGGUAGUCCA [Vearedqu]  10.9 nM
3. AAAUAAAUACAUGAGGAUCACCCAUGUGAAGGAGCGCGCGUUAGCGCAGGUAGGUCGCACAUGAAUAACUCCGCGCGAAAGCGCA [MAT - Exclusion Arginine A - Mod of Eli - D11]  11.8 nM
4. CUCCCGUGGUCGGCCGCCACUGGAGGCCUCGCGCGACAUGAGGAUCACCCAUGUUGGCCCGGCUUCAGGACCGGGAUCGCGUGAG [#1 Same State - Tryptophan B Attempt #8 (HarryS)]  12.2 nM
5. UGUAUGGACUGAAGGAGCGACUCAAAAUAACAUGAGGAUCACCCAUGUAAGGCGAAAGCCGGUCAGGUAGGUCGCAGUCCAUACU [ArgBX 3]  13.7 nM
6. UUCAAAGGGAACGGUGCUGGUAGCAGAGAUACCAGAGUAAUGAUACUCCCUUGGCAGCUCAGUACAUGAGGAUCACCCAUGUAAU [Exclusion Theophylline A GF24]  13.8 nM
7. ACAUGAGGAUCACCCAUGUACUGGAUCUAACGAGGACCGGUACGGCCGCCACUCGAAGAUAGGACUAUGGAAACAUAGCUUAUCA [Design 1]  15.3 nM
8. AGUAGUUGACAAAAGUCAGCUACAAUUGAAGGAGCGGGAUCCUUCCCAGGUAGGUCGCAAUAACAUGAGGAUCACCCAUGUCAAA [ArgAS 4 #BothOrNeither #OpenEnded]  15.9 nM
9. AUGACUCACAAAGAAGAUAAAAUGGGUGAACGAGGACCGGUACGGCCGCCACUCGGACAUGAGGAUCACCCAUGUCCAUGUGCAA [#24 Exclusion Tryptophan A]  16 nM
10. UGUACAUGAGGAUCACCCAUGUUACGCGAUACCAGACAUGAGAGUGUCCCUUGGCAGCGUGGAGCUGAUACGGCGGGAAGCCGGA [#10 SameState-TheophyllineA]  16.1 nM
11. AGCUCAUAGAGUGAUACCAGACUACAUGAGGAUCACCCAUGUUACUUUUAAAUAUCAUUUGUCCCUUGGCAGCACAUGAAGAGCA [JR_Nu_ExcTheophyB_Sub017]  18.3 nM
12. CGAAUAUAGACGGCCGCCACUCUACAAACAUGAGGAUCACCCAUGUUCACAUAGUGGAAACACAUGAGGACCGGGUCAUAGGCAU [#18 Same State - Tryptophan B]  19.2 nM
13. CUAUAUUUAUCGGCCGCCACUUACUCAUGAGGUAACAACAUGAGGAUCACCCAUGUUUGAGGAUCAAGGACCGGGAUAAAUAUAG [AstrosSSTryB#17]  25.4 nM
14. GGUUCAUCGUCGGCCGCCACUCACAUGAGGUGGAGCUGUAAACAUGAGGAUCACCCAUGUUGUUAGAGGACCGGGACGUGACGGC [theeternabot_exclusion_MS2_Trp_B_6]  25.5 nM
15. AGCAACAAGUCGGCCGCCACUCUUUUAACAUGAGGAUCACCCAUGUUUAUAUCAUGGUUUUAAUAGAGGACCGGGACAGUUGCAU [JR_ExcTryptoB_Sub005]  26.3 nM
16. ACAUGAGGAUCACCCAUGUAGCGUAGGGAAGGAGCGGAAUAAAGUCCAGGUAGGUCGCCCAUAUGAUGAUCUCACUUAUUAUCGA [#12 Same State - Arginine A]  27.7 nM
17. AUCUUUGGCGAUCUGGGAAAACCAGAUCGACGAGGACCGGUACGGCCGCCACUCGUGUAUAAUAUACAUGAGGAUCACCCAUGUA [#18 Tryptophan A Same State]  27.8 nM
18. UCUAGUGCGGGAAGGAGCGCCAUACAUGAGGAUCACCCAUGUUGAGCAUGCUCGUGUACUAGGCAGGUAGGUCGCCCGCUCUACG [Radionle]  28.8 nM
19. UUCGUUUGCGGAAGGAGCGACGGACAUCGGUGAACAACGCACAUGAGGAUCACCCAUGUACGUCAGGUAGGUCGCCGCUAAGAGU [XArg-B3]  29.3 nM
20. CCGUUUUAUGGCGACAUAGGGCGGACUGAAGGAGCGGUAUAAAAGCCAGGUAGGUCGCAGAGAUCCACAUGAGGAUCACCCAUGU [!0.aA]  29.4 nM
21. AAAAUCCUACCUGAGGAUCACCCAGGUGAAGGAGCGCCCGAAAGGGCAGGUAGGUCGCACCUGAGGAUCACCCUGGUAAACCUAA [ArgEX 22 #DoubleMS2 #OpenEnded]  30.9 nM
22. UGUAUGGACUGAAGGAGCGCCUCAAAAUAACUUGAGGAACACCCAAGUAAGGCGAAAGCCGGGCAGGUAGGUCGCAGUCCAUACU [ArgBX 3]  31 nM
23. AACGUAUACAGAAGGAGCGUGAUUUAUUAUUCUUUAAGAUAUACAUGAGGAUCACCCAUGUCACAGGUAGGUCGCUGUAUUCGUA [JR_ExcArginiB_Sub025]  31 nM
24. UGUGUCGUCUGAAGGAGCGGCUCUUGAUCCUCGUGGGACAUGAGGAUCACCCAUGUCUCGAGCCAGGUAGGUCGCAGGCGGCACA [#27 Exclusion - Arginine B]  31.3 nM
25. CUAUAUAUAUCGGCCGCCACUUACUCAUGAGGUAACAACAUGAGGAUCACCCAUGUUUGAGGAUCAAGGACCGGGAUAUAUAUAG [AstrosSSTryB#15]  31.8 nM
26. UCAGCACAUGAGGAUCACCCAUGUCGUGAUACCAGCCUGUGCGAAGGCCCUUGGCAGCACAGUCCCGAUUUGCUUAUAUGCACUU [theeternabot_sameState_MS2_Theo_A_48]  32.4 nM
27. AAGGUGAUCCUCGAUACCAGCUCAACAUGAGGAUCACCCAUGUAAGCCUGGAAACAGGCGAGCCCUUGGCAGCGAGUUACAUCAA [(M)'-(Theo1)-(Ms2)-(Theo2)-(M'')]  32.9 nM
28. AACGUAUACAGAAGGAGCGUGAUUUGUGUUACUCAUUCAUAUACAUGAGGAUCACCCAUGUCACAGGUAGGUCGCUGUAUUCGUA [JR_ExcArginiB_Sub022]  39.8 nM
29. AUCCACAGCCGAAGGAGCGCAGUAGGAUGACAUGAGGAUCACCCAUGUGUGUGAUGUGGAUUGCAGGUAGGUCGCGGAGUGGGUU [Exclusion - Arginine B (Freestyle 8)]  43.9 nM
30. AAGUAAACAUGAGCAAAGCUCAUGUGCGAAGGAGCGGCGGAAACGCCAGGUAGGUCGCGCACAUGAGCAUCAGCCAUGUGUAUCA [Omei Arginine B SS A v2]  45.3 nM
31. GCGAUGGAGCGAAGGAGCGUGCUGGUACAUGAGGAUCACCCAUGUGAGUCGCAUCGCUAAGCACAGGUAGGUCGCGCUCCAUCGC [EAB NP+V+V2 #10]  48.6 nM
32. UGUAUGGACUGAAGGAGCGGAAAAUAAAUCUGAGGAUCACCCAGGUAAUAGGCGAAAGCCAUCCAGGUAGGUCGCAGUCCAUACU  56.9 nM
33. CGUAUUGUAACUGAUACCAGUGUACUGACAUGAGGAUCACCCAUGUUGGGUUUUGUUGUACACCCUUGGCAGCAGAAUCAAUACG [AstrosExyTheB#5]  59.4 nM
34. GACAUGAGGAUAGAUACCAGCGACAUGAGGAUCACAUGAGGAUCACCCAUGUGUAGUAUACGCCCUUGGCAGCUAACAUGAGGAU [Same State Theophylline B 3]  59.5 nM
35. ACGAUAGGACUUGAGGAUCACCCAAGUGAUACCAGCCUGGAAACAGGCCCUUGGCAGCACUAAUACUCCAAUAACCUAUCGAAUA [TheoAX 14 #MicroSwitchBubble #AlternativeMS2]  78.6 nM
36. GUUAUGAUAAGAAGGAGCGUCGAAAAUGGGUAAACAUGAGGAUCACCCAUGUAAAGGGAACGACAGGUAGGUCGCUUAUUAUAAC [AstromonsSSArgB#20]  86.8 nM
37. CCUCAAUAGACGGCCGCCACUGAAACAUGCGGAUACAUGAGGAUCACCCAUGUGGGUGUGUUACGCAGGACCGGGUCAAGACCCG [#12 Same State - Tryptophan B]  115 nM
38. GUCAGUGACUGAAGGAGCGACAUGAGGAUCACCCAUGUCUCCCGUUAUGGGAGUUCCUUAGGUCAGGUAGGUCGCAGUCACUGAC [#1 Exclusion - Arginine B Attempt #29 (Inspired by Omei)]  174 nM

Same assay, conditions: Eterna round: R107; input ligand: none

With “AAAUAAAUACAUGAGGAUCACCCAUGUGAAGGAGCGCGCGUUAGCGCAGGUAGGUCGCACAUGAAUAACUCCGCGCGAAAGCGCA [MAT - Exclusion Arginine A - Mod of Eli - D11]” the “apparent KD of MS2 coat protein” value was 17.4 nM.

From the supplement of paper PMC9170038
